Laboratory results reported in PMC6079010.

Target: catalytic domain of KAT2A (as crystallised, apo and with succinyl-CoA)
Assay: crystal structure; apo (space group P4_(1)2_(1)2) and succinyl-CoA-complexed (P2_(1)3) crystals of the catalytic domain, grown at pH 4.6; octahedral assembly seen in both

A stoichiometry N of 24 was found for “catalytic domain of KAT2A (as crystallised, apo and with succinyl-CoA) (domain or fragment)” in this work.
